# Laboratory results reported in the RNAGym collection of RNA variant scans (doi:10.1021/acssynbio.7b00057).
# B1: Pistol ribozyme (parent)
# chain: GGGUCGUUGUUCCAUAAUCGCGUGGAUAUGGCACGCAAGUUUCUACCGGGCACCGUAAAUGUCCGACUGGAGCCGUUCGGGCGGCUAUAAACAGACCUCAGGCCCGAAGCGUGGCGGCACCUGCCGCCGGUGGUAAAAAAGAUCGGAAGAGCACACGUCU
# Variants of: B1
# Test: aptazyme ON/OFF ratio, guanine; higher = stronger switching; co-transcriptional cleavage with and without guanine
row,Variant,aptazyme ON/OFF ratio
1,U7C U8G G9A U10A C12U C13G,1.17
2,U7C U8C U10G C12G C13U,1.13
3,U7C U8C U10G C12G C13A,1.11
4,U7C U8C U10G C12G C13G,1.11
5,U7C U8G G9A U10C U11A C12U,1.09
6,U7C U8G G9A U10C U11A C12A,1.15
7,U7C U8G G9A U10C U11A C12G,1.13
8,U7C U8C U11A C12G C13U,1.12
9,U7C U8C U11A C12G C13A,1.13
10,U7C U8C U11A C12G C13G,1.12
11,U7C U8C U11G C12G C13A,1.1
12,U7C U8C U11G C12G C13G,1.16
13,U7C U8C U11G C12G C13U,1.09
14,U7C U8C U10C U11G C12U C13U,1.3
15,U7C U8C U10C U11G C12U C13A,1.28
16,U7C U8C U10C U11G C12U C13G,1.23
17,U7C U8G G9A U10G U11C C12U,1.14
18,U7C U8G G9A U10G U11C C12A,1.41
19,U7C U8G G9A U10G U11C C12G,1.29
20,U7C U8C U10G U11C C12A C13U,1.15
21,U7C U8C U10G U11C C12A C13A,1.16
22,U7C U8C U10G U11C C12A C13G,1.11
23,U7C U8G G9A U10A U11C,1.04
24,U7C U8G G9A U10A U11G,1.33

row,Variant,aptazyme ON/OFF ratio
1,U7C U8G G9A U10A U11A,1.31
2,U7C U8G C12A,1.63
3,U7C U8G C12G,1.29
4,U7C U8G C12U,2.44
5,U7C U8G G9A C13G,1.05
6,U7C U8G G9A C13A,1.14
7,U7C U8G G9A C13U,1.11
8,U7C U8C U10G C12U C13U,1.13
9,U7C U8C U10G C12U C13G,1.1
10,U7C U8C U10G C12U C13A,1.08
11,U7C U8C U10G U11C C13A,1.37
12,U7C U8C U10G U11C C13G,1.16
13,U7C U8C U10G U11C C13U,1.16
14,U7C U8G G9A U10C C13A,1.04
15,U7C U8G G9A U10C C13U,1.92
16,U7C U8G G9A U10C C13G,1.06
17,U7C U8G G9A U10G U11G C12G,1.27
18,U7C U8G G9A U10G U11G C12A,1.33
19,U7C U8G G9A U10A C12U,1.19
20,U7C U8G G9A U10A C12A,1.26
21,U7C U8G G9A U10A C12G,1.18
22,U7C U8G C12U C13G,1.18
23,U7C U8G C12U C13A,1.22
24,U7C U8G C12U C13U,1.3

row,Variant,aptazyme ON/OFF ratio
1,U7C U8C U10G U11A C12G C13U,1.09
2,U7C U8C U10G U11A C12G C13A,1.08
3,U7C U8C U10G U11A C12G C13G,1.11
4,U7C U8G G9A C12A C13A,1.28
5,U7C U8G G9A C12A C13U,1.29
6,U7C U8G G9A C12A C13G,1.16
7,U7C U8G C12G C13U,1.17
8,U7C U8G C12G C13G,1.08
9,U7C U8G C12G C13A,1.09
10,U7C U8G G9A U10G U11C C12A C13U,1.25
11,U7C U8G G9A U10G U11C C12A C13G,1.1
12,U7C U8G G9A U10G U11C C12A C13A,1.35
13,U7C U8C U11C C12G C13G,1.31
14,U7C U8C U11C C12G C13U,1.33
15,U7C U8C U11C C12G C13A,1.4
16,U7C U8G G9A U10A U11G C12A,1.06
17,U7C U8G G9A U10A U11G C12G,1.25
18,U7C U8G G9A U10A U11G C12U,1.38
19,U7C U8G G9A U10A U11A C12U C13G,1.17
20,U7C U8G G9A U10A U11A C12U C13U,1.16
21,U7C U8G G9A U10A U11A C12U C13A,1.17
22,U7C U8G G9A U10C U11A,1.24
23,U7C U8G G9A U10C U11C,1.03
24,U7C U8G G9A U10C U11G,1.23

row,Variant,aptazyme ON/OFF ratio
1,U7C U8G G9A U10C U11A C12U C13A,1.07
2,U7C U8G G9A U10C U11A C12U C13G,1.05
3,U7C U8G G9A U10C U11A C12U C13U,1.05
4,U7C U8C U11A C13G,1.19
5,U7C U8C U11A C13A,1.21
6,U7C U8C U11A C13U,1.27
7,U7C U8G G9A U10A U11G C12U C13G,1.25
8,U7C U8G G9A U10A U11G C12U C13U,1.35
9,U7C U8G G9A U10A U11G C12U C13A,1.24
10,U7C U8G G9A U10A U11A C12A C13G,1.2
11,U7C U8G G9A U10A U11A C12A C13U,1.21
12,U7C U8G G9A U10A U11A C12A C13A,1.2
13,U7C U8G G9A U10A U11A C12G C13G,1.21
14,U7C U8G G9A U10A U11A C12G C13A,1.12
15,U7C U8G G9A U10A U11A C12G C13U,1.21
16,U7C U8G G9A U10G U11A C12U C13G,1.36
17,U7C U8G G9A U10G U11A C12U C13A,1.46
18,U7C U8G G9A U10G U11A C12U C13U,1.32
19,U7C U8C U10G,1.98
20,U7C U8G G9A U10G U11C C12G C13U,1.19
21,U7C U8G G9A U10G U11C C12G C13A,1.2
22,U7C U8G G9A U10G U11C C12G C13G,1.41
23,U7C U8G G9A U10G U11C,1.06
24,U7C U8G G9A U10G U11A,1.05

row,Variant,aptazyme ON/OFF ratio
1,U7C U8G G9A U10G U11G,1.42
2,U7C U8C U11C C12U,1.34
3,U7C U8C U11C C12A,1.33
4,U7C U8C U11C C12G,1.16
5,U7C U8G G9A U10A C12A C13G,1.1
6,U7C U8G G9A U10A C12A C13U,1.19
7,U7C U8G G9A U10A C12A C13A,1.17
8,U7C U8C U11G C12U,1.25
9,U7C U8C U11G C12G,1.33
10,U7C U8C U11G C12A,1.35
11,U7C U8G C13U,2.24
12,U7C U8G C13A,1.25
13,U7C U8G C13G,1.16
14,U7C U8G G9A U10A U11G C13A,1.2
15,U7C U8G G9A U10A U11G C13U,1.27
16,U7C U8G G9A U10A U11G C13G,1.02
17,U7C U8C U11A C12A C13U,1.31
18,U7C U8C U11A C12A C13G,1.15
19,U7C U8C U11A C12A C13A,1.2
20,U7C U8G G9A U10G C12G C13G,1.1
21,U7C U8G G9A U10G C12G C13A,1.25
22,U7C U8G G9A U10G C12G C13U,1.17
23,U7C U8C U10G U11C C12G,1.4
24,U7C U8C U10G U11C C12A,1.41

row,Variant,aptazyme ON/OFF ratio
1,U7C U8C U10G U11C C12U,1.22
2,U7C U8G G9A U10A U11A C13U,1.12
3,U7C U8G G9A U10A U11A C13G,1.07
4,U7C U8G G9A U10A U11A C13A,1.12
5,U7C U8G G9A U10C U11A C12G C13U,1.11
6,U7C U8G G9A U10C U11A C12G C13G,1.09
7,U7C U8G G9A U10C U11A C12G C13A,1.07
8,U7C U8C U10G C13U,1.12
9,U7C U8C U10G C13G,1.08
10,U7C U8C U10G C13A,1.13
11,U7C U8G G9A U10C U11A C13A,1.12
12,U7C U8G G9A U10C U11A C13G,1.07
13,U7C U8G G9A U10C U11A C13U,1.09
14,U7C U8G G9A U10C U11A C12A C13U,1.07
15,U7C U8G G9A U10C U11A C12A C13A,1.11
16,U7C U8G G9A U10C U11A C12A C13G,1.08
17,U7C U8G C12A C13A,1.22
18,U7C U8G C12A C13U,1.27
19,U7C U8G C12A C13G,1.08
20,U7C U8G G9A U10C C12A,1.18
21,U7C U8G G9A U10C C12U,2.39
22,U7C U8G G9A U10C C12G,1.23
23,U7C U8G G9A U10G C12U C13A,1.46
24,U7C U8G G9A U10G C12U C13U,1.26

row,Variant,aptazyme ON/OFF ratio
1,U7C U8G G9A U10G C12U C13G,1.19
2,U7C U8C U10G U11G C13A,1.24
3,U7C U8C U10G U11G C13U,1.16
4,U7C U8C U10G U11G C13G,1.11
5,U7C U8C U10G U11C C12U C13G,1.11
6,U7C U8C U10G U11C C12U C13U,1.29
7,U7C U8C U10G U11C C12U C13A,1.2
8,U7C U8C U10G C12A C13U,1.12
9,U7C U8C U10G C12A C13A,1.1
10,U7C U8C U10G C12A C13G,1.08
11,U7C U8G G9A U10C U11G C13A,1.28
12,U7C U8G G9A U10C U11G C13G,1.12
13,U7C U8G G9A U10C U11G C13U,1.41
14,U7C U8G G9A U10A U11C C12G C13A,1.32
15,U7C U8G G9A U10A U11C C12G C13G,1.34
16,U7C U8G G9A U10A U11C C12G C13U,1.45
17,U7C U8C U10C U11G C13A,1.2
18,U7C U8C U10C U11G C13G,1.24
19,U7C U8C U10C U11G C13U,1.34
20,U7C U8G G9A U10G U11G C12G C13A,1.42
21,U7C U8C U10G U11A,1.24
22,U7C U8C U10G U11G,1.49
23,U7C U8C U10G U11C,1.39
